Experimental data taken from US10975142B2, “Endotrophin neutralization and use thereof” (THE BOARD OF REGENTS OF THE UNIVERSITY OF TEXAS SYSTEM, priority 2013, dated 2021).

B1: 10B6: rat anti-mouse endotrophin monoclonal antibody; light chain variable SEQ ID NO: 2, heavy chain variable SEQ ID NO: 4 (antibody, V domains shown)
VH: QVQLQQSGPELAKPGSSVKISCKASGYTFTSYEMHWIKQRPGQGLEWIGYIYPESGSTGYNEKFKGKATLTVDKSSPTAYMQLSSLTPDNSAVYFCTRGLRVLGYVMDVWGHGTSVTVSS
VL: DVQLTQSPSFLSASVGDRVTINCKASQNINKYLNWYQQKLGEAPKRLIYNTNNLQTGIPSRFSGSASGTDYTLTISSLHPEDFATYFCLQHSSLYTFGAGTKLELK

Assays:
PyMT mice [1] = experiment: high dosage cisplatin in PyMT mice; assay type: in vivo, mouse; conditions: cisplatin 2.5 mg/kg, ip. twice a week
Method: FIGS. 20A-20C. Endotrophin overexpression confers cisplatin resistance in PyMT mice. FIG. 20A. 10-weeks-aged PyMT and PyMT/endotrophin (PyMT/ETP) mice were given high dosage of cisplatin (2.5 mg/kg, ip., 2 times/week). Tumor growth was determined by caliper measurements. Data represent mean±SD (n=7-10/group). ***p<0.001, PyMT/CIS vs. PyMT/ETP/CIS by 2-way ANOVA. FIGS. 20B-20C. A piece of tumors taken from PyMT (Ctrl-tumor) and PyMT/endotrophin (ETP^+-tumor) mice were implanted into isogenic wild-type hosts. Cisplatin (1 mg/kg, ip., 2 times/week) were injected at 3-weeks post implantation for tumor progression. Tumor volume was determined by caliper measurement. […] Data represent mean±SD (n=7-8/group). *p<0.05 vs. Ctrl-tumors by 2-way ANOVA. Representative images were taken at 70-days post implantation. Scale: 10 mm.

PyMT mice [2] = experiment: 10B6 treatment of PyMT mice, tumor growth; assay type: in vivo; conditions: 10B6 200 μg/mouse i.p. twice weekly, 9 to 13 weeks of age, vs isotype control IgG
Method: FIGS. 8A-8I: 10B6 blocks ETP-mediated stromal expansion in vivo. (FIG. 8A) 10B6 (200 μg/mouse) was i.p. injected twice weekly into PyMT mice from 9 to 13 weeks of age. Tumor growth (mean±SEM; n=4-6 per group) was determined by weekly caliper measurements. *P<0.05, **P<0.01, ***P<0.001 vs. IgG control, 2-way ANOVA. (FIG. 8B) Primary mammary epithelial cancer cells were isolated from 12-week-old FP635/PyMT and FP635/PyMT/ETP mice and implanted into WT recipients with the same volume of Matrigel. For the 10B6 group, 10B6 was added in a Matrigel plug (10 μg/plug) admixed with ETP^+-cancer cells (i.e., ETP^+/10B6). A representative whole-body image was acquired 25 days after implantation using IVIS fluorescence scanner. Artificial color indicates fluorescence signal intensity accounts for tumor volume (AU). Quantitative results are represented as mean±SEM (n=3 per group). *P<0.05, unpaired t test. […] Quantified results in FIGS. 8D-8I are mean±SEM (multiple images, n=3 per group). *P<0.05, **P<0.01, unpaired t test. […]
Tumor onset was monitored twice weekly by palpation. Tumor sizes were measured with a digital caliper twice weekly and the volumes were calculated as […]. […] Metastatic tumor growth was determined by histological analysis with H&E stained lung tissues.

[3] = test system: diet induced obese (DIO) mice; experiment: diet induced obese mice, serum and hepatic lipid parameters; assay type: in vivo, mouse
Method: FIGS. 26A-26G: Endotrophin neutralization improves the metabolic phenotype. FIG. 26A. Two cohorts of mice (n=8) were exposed to high fat diet for 45 days after weaning. At the indicated time points (arrowheads), mice were treated with anti-endotrophin monoclonal antibodies (100 µg/mouse) or equivalent amounts of non-immune antibody. Body weights were monitored. FIG. 26B. Plasma Triglycerides and FIG. 26C. plasma free fatty acids (NEFAs) and FIG. 26D. plasma cholesterol were measured. FIG. 26E. Hepatic triglycerides and FIG. 26F. hepatic cholesterol were measured. Significant differences as indicated by unpaired student t-test. FIG. 26G. […] Scale bar=25 μm.
To evaluate the therapeutic potential of endotrophin neutralizing monoclonal antibodies on lipid parameters, a separate cohort of diet induced obese (DIO) mice were chronically treated with either IgG control or 10B6 (rat anti-mouse endotrophin monoclonal antibody) via intraperitoneal injection at 2 weeks after high-fat diet (HFD) challenge and maintained them on a HFD with antibody treatment for another 4 weeks, similar to the experiment described in FIG. 24.

MS-1 cells = experiment: in vitro angiogenesis assay (tubule formation on Matrigel); assay type: cell-based, mouse; conditions: 10B6 10 μg/well, 3 hours
Method: FIGS. 17A-17B. Endotrophin effects on endothelial cell migration. FIG. 17A. in vivo Matrigel bioassays were performed as described in FIG. 6J. Matrigel plugs were analyzed by H&E and immunostaining for CD31 (endothelial cell marker). Scale bars: 200 μm (H&E), and 50 μm (CD31). FIG. 17B. in vitro Angiogenesis assay. MS-1 cells (5×10^4 cells/well) were plated in triplicate on the matrigel coated 12-well plates. Tubule formation was assessed 3 hours after incubation with conditioned media derived from H293 or H293-endotrophin overexpressing cells in the presence or absence of 10B6 (10 μg/well). Scale bars: 500 μm.
A total 300 μl/well of growth factor reduced matrigel (BD biosciences) was plated into 12 well plates. MS-1 cells (5×10^4) were seeded and images were acquired 3-4 hours after incubation with the conditioned media indicated.

Molecule | primary tumor growth of PyMT mice (PyMT mice [1]) | tumor growth (PyMT mice [2]) | hepatic cholesterol levels ([3]; 10B6 vs IgG) | levels of hepatic triglycerides ([3]; 10B6 vs IgG) | levels of serum triglyceride ([3]; 10B6 vs IgG) | serum cholesterol levels ([3]; 10B6 vs IgG) | serum free fatty acids ([3]; 10B6 vs IgG) | hepatic lipid accumulation ([3]; H&E stains, 10B6 vs IgG control) | vasculature structure (tubule) formation induced by conditioned media from ETP-overexpressing HEK-293T cells (MS-1 cells)
N.N.[Cl][Pt][Cl] [cisplatin, cis-diammine-dichloro-platinum] | effectively curbed | – | – | – | – | – | – | – | –
B1 | – | significantly attenuated | comparable | improved | dramatically improved | less affected | dramatically improved | significantly reduced | completely blocked
